The assay addresses SARS-CoV-1 RBD-Fc (RBD N321-P513 fused to CH2 and CH3 of mouse IgG1) (SARS-CoV-1). Put plainly: SPR. A general note: SPR reads the build-up and loss of mass on a sensor chip optically.

This passage reports Kd results from paper PMC9529347.

The term Kd denotes the concentration at which binding is half-saturated. Low values mean higher affinity, high ones lower affinity.

Chain of soluble human ACE2, truncated ectodomain (S19-D615), C-terminal 6xHIS-tag (Q9BYF1 19-615): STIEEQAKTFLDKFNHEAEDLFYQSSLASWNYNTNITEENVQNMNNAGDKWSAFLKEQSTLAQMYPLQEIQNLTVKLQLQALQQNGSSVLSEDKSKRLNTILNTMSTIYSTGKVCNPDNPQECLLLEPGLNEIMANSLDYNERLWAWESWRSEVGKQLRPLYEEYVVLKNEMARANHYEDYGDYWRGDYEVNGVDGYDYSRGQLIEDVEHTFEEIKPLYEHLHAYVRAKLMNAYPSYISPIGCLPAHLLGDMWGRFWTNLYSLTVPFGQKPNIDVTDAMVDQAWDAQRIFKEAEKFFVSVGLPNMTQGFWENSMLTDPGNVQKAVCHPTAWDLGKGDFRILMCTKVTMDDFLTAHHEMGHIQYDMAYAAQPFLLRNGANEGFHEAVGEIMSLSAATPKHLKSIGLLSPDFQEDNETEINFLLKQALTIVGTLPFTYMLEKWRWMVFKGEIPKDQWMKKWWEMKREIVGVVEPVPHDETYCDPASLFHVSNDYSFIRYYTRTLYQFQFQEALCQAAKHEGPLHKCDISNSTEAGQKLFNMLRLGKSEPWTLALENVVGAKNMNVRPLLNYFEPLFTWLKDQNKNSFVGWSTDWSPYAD

With “soluble human ACE2, truncated ectodomain (S19-D615), C-terminal 6xHIS-tag (from UniProt Q9BYF1 19-615) (receptor)”, the equilibrium dissociation constant (Kd) was determined as 385 nM.
